Laboratory results as given in paper PMC9482650, “Quantitative fragmentomics allow affinity mapping of interactomes” (Nature Communications, 2022).

Experiments:
Test in all cases: holdup assay
Set-up in all cases: key: below the threshold = too weak to quantify, mostly under pKd 3.1 to 4
[1] = biological target: PTPN3, P26045
[2] = biological target: MAST2, Q6P0Q8
[3] = biological target: DLG4_1, P78352
[4] = biological target: FRMPD3, Q5JV73
[5] = biological target: Inadl_8, Q8NI35
[6] = biological target: GRIP2_6, Q9C0E4
[7] = biological target: LDB3, O75112
[8] = biological target: T1, CARD11, Q9BXL7
T1 sequence (Q9BXL7 662-765, limits assumed, looked up): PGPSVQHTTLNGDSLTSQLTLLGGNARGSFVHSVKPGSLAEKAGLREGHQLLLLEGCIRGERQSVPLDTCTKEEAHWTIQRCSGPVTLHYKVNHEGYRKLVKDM

[9] = biological target: DLG2_2, Q15700
[10] = biological target: SNX27, Q96L92
[11] = biological target: T2, LNX2_3, Q8N448
T2 sequence (Q8N448 463-564, limits assumed, looked up): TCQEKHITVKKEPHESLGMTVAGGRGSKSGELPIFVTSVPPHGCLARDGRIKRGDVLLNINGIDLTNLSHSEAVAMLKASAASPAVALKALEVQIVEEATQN

[12] = biological target: MAGI2_6, Q86UL8
[13] = biological target: T3, PDZRN3_1, Q9UPQ7
T3 sequence (Q9UPQ7 244-349, limits assumed, looked up): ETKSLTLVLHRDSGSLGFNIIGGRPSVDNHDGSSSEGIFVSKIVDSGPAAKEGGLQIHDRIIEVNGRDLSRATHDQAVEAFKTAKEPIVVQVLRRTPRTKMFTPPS

[14] = biological target: MAGI2_5, Q86UL8
[15] = biological target: ARHGEF12, Q9NZN5-2
[16] = biological target: Inadl_3, Q8NI35
[17] = biological target: Inadl_10, Q8NI35
[18] = biological target: T4, ARHGAP21, Q5T5U3
T4 sequence (Q5T5U3 45-169, limits assumed, looked up): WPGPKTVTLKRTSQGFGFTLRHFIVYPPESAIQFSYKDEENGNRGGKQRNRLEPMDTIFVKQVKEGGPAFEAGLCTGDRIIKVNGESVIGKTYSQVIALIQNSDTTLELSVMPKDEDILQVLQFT

[19] = biological target: T5, RADIL, Q96JH8
T5 sequence (Q96JH8 971-1071, limits assumed, looked up): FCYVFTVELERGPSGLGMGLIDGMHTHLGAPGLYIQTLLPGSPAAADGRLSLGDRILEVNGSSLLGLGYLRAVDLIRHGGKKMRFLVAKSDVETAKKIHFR

[20] = biological target: NHERF4_1, Q86UT5-2
[21] = biological target: MAGI1_1, Q96QZ7
[22] = biological target: GIPC2, Q8TF65
[23] = biological target: T6, FRMPD1, Q5SYB0
T6 sequence (Q5SYB0 52-145, limits assumed, looked up): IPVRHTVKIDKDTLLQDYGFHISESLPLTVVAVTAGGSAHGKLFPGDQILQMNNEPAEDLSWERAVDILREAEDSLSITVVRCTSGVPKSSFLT

[24] = biological target: T7, LIN7A, O14910
T7 sequence (O14910 103-200, limits assumed, looked up): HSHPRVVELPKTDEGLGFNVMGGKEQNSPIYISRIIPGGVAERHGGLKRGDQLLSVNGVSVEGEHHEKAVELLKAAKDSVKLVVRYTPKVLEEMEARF

[25] = biological target: SCRIB_1, Q14160
[26] = biological target: T8, PARD3B_1, Q8TEW8
T8 sequence (Q8TEW8 196-299, limits assumed, looked up): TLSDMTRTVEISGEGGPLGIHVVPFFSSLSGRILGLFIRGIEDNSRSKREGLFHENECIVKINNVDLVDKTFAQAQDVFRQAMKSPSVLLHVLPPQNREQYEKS

[27] = biological target: LIMK2, P53671
[28] = biological target: T9, MPP2, Q14168
T9 sequence (Q14168 180-250, limits assumed, looked up): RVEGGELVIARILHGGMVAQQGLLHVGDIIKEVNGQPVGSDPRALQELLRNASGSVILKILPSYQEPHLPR

[29] = biological target: GRASP, Q7Z6J2
[30] = plain residues with an end cap or a label only (N-terminal biotin on a linker: ahx)
[31] = plain residues with an end cap or a label only (N-terminal biotin on a linker: ado-ado)

PTPN3, P26045, sequence (P26045 505-587): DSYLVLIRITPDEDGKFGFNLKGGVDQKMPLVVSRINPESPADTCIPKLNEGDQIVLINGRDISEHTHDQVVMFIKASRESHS
MAGI1_1, Q96QZ7, sequence (Q96QZ7 1-106): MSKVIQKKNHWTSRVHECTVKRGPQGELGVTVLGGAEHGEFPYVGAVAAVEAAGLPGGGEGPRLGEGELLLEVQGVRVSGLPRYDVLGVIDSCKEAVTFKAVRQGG
GIPC2, Q8TF65, sequence (Q8TF65 112-203): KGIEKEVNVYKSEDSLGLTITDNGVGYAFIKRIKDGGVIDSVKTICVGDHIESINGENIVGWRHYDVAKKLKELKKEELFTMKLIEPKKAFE
Inadl_3, Q8NI35, sequence (Q8NI35 359-469): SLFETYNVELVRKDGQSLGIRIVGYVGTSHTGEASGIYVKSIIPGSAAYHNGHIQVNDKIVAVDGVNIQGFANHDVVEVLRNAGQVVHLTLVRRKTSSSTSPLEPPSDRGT
GRIP2_6, Q9C0E4, sequence (Q9C0E4 648-740): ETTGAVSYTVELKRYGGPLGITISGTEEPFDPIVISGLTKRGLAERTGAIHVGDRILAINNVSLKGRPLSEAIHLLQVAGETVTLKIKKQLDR
Inadl_8, Q8NI35, sequence (Q8NI35 1425-1530): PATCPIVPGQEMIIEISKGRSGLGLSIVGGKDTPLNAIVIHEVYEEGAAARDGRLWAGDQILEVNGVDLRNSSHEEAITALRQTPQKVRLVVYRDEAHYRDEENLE
NHERF4_1, Q86UT5-2, sequence (Q86UT5 other isoform, or with tags, fused parts or gaps): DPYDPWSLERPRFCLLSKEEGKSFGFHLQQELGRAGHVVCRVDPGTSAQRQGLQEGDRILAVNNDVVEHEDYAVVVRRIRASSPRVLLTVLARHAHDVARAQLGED
FRMPD3, Q5JV73, sequence (Q5JV73 12-100): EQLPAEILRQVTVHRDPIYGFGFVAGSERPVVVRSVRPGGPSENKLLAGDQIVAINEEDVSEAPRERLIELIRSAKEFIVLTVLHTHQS
DLG4_1, P78352, sequence (P78352 62-152): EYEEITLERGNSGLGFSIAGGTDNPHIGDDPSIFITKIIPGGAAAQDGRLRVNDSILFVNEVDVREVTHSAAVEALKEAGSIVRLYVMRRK
MAST2, Q6P0Q8, sequence (Q6P0Q8 1099-1202): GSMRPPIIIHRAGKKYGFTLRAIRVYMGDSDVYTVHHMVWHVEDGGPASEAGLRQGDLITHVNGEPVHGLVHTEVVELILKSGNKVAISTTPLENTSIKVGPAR
GRASP, Q7Z6J2, sequence (Q7Z6J2 96-193): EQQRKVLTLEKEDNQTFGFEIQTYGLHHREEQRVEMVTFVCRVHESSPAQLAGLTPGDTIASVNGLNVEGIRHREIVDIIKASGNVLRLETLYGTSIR
MAGI2_6, Q86UL8, sequence (Q86UL8 1141-1229): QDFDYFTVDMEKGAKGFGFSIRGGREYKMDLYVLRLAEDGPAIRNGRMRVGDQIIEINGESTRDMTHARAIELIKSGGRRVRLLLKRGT
LIMK2, P53671, sequence (P53671 143-248): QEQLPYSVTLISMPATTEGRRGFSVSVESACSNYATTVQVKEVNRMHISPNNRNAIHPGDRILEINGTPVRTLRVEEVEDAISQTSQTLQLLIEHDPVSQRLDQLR
MAGI2_5, Q86UL8, sequence (Q86UL8 915-1017): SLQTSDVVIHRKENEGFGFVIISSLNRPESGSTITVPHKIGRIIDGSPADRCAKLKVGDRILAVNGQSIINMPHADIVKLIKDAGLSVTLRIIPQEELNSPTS
LDB3, O75112, sequence (O75112 1-94): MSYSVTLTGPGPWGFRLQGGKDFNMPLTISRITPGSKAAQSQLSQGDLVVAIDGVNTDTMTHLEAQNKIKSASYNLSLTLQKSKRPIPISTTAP
DLG2_2, Q15700, sequence (Q15700 189-283): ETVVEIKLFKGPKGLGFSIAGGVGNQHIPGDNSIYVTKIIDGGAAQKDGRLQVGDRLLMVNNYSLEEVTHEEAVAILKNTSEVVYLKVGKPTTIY
ARHGEF12, Q9NZN5-2, sequence (Q9NZN5 other isoform, or with tags, fused parts or gaps): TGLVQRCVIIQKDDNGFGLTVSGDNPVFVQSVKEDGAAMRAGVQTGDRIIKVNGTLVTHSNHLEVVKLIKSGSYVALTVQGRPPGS
Inadl_10, Q8NI35, sequence (Q8NI35 1673-1763): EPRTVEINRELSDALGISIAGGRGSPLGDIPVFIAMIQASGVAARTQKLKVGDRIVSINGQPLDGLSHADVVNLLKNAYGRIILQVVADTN
SCRIB_1, Q14160, sequence (Q14160 718-814): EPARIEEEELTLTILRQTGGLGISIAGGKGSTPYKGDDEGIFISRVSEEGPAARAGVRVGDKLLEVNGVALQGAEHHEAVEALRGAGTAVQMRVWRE

B1: FRMPD1, Q5SYB0 (peptide)
chain: TQKFRASTAL
Work on B1 yielded a pKd [1, 30] of 4.45, a pKd [2, 30] of 5.36 and a pKd [3, 30] of 3.48. The pKd [4, 30] was “below the threshold”, the pKd [5, 30] was “below the threshold” and the pKd [6, 30] was “below the threshold”. The pKd [7, 30] was “below the threshold”, the pKd [8, 30] was “below the threshold” and the pKd [9, 30] was 4.17. The pKd [10, 30] was 4.03, the pKd [11, 30] was “below the threshold” and the pKd [12, 30] was “below the threshold”. The pKd [13, 30] was 4.16, the pKd [14, 30] was 3.59 and the pKd [15, 30] was 4.79. The pKd [16, 30] was “below the threshold”, the pKd [17, 30] was 3.61 and the pKd [18, 30] was “below the threshold”. The pKd [19, 30] was “below the threshold”, the pKd [20, 30] was 4.47 and the pKd [21, 30] was “below the threshold”. The pKd [22, 30] was “below the threshold”, the pKd [23, 30] was “below the threshold” and the pKd [24, 30] was “below the threshold”. For the same binder, the pKd [25, 30] was 4.22, the pKd [26, 30] was “below the threshold” and the pKd [27, 30] was “below the threshold”. The pKd [28, 30] was “below the threshold” and the pKd [29, 30] was 4.56.

B2: KLHDC7A, Q5VTJ3 (peptide)
chain: PTPDLPQTRV
In the case of B2, the pKd [1, 31] is reported as “below the threshold”, the pKd [2, 31] is reported as 5.2 and the pKd [3, 31] is reported as “below the threshold”. The pKd [4, 31] was “below the threshold”, the pKd [5, 31] was 4.36 and the pKd [6, 31] was “below the threshold”. The pKd [7, 31] was “below the threshold”, the pKd [8, 31] was “below the threshold” and the pKd [9, 31] was “below the threshold”. For the same binder, the pKd [10, 31] was 4.21, the pKd [11, 31] was “below the threshold” and the pKd [12, 31] was 3.61. The pKd [13, 31] was 3.53, the pKd [14, 31] was “below the threshold” and the pKd [15, 31] was 4.13. The pKd [16, 31] was “below the threshold”, the pKd [17, 31] was “below the threshold” and the pKd [18, 31] was “below the threshold”. For the same binder, the pKd [19, 31] was “below the threshold”, the pKd [20, 31] was “below the threshold” and the pKd [21, 31] was “below the threshold”. The pKd [22, 31] was “below the threshold”, the pKd [23, 31] was “below the threshold” and the pKd [24, 31] was “below the threshold”. For the same binder, the pKd [25, 31] was “below the threshold”, the pKd [26, 31] was 3.72 and the pKd [27, 31] was “below the threshold”. The pKd [28, 31] was “below the threshold” and the pKd [29, 31] was 3.64.

B3: FAM110D, Q8TAY7 (peptide)
chain: ARGPPRESEV
In the case of B3, the pKd [1, 31] is reported as 4.94, the pKd [2, 31] is reported as 4.89 and the pKd [3, 31] is reported as 4.83. For the same binder, the pKd [4, 31] was “below the threshold”, the pKd [5, 31] was 3.81 and the pKd [6, 31] was “below the threshold”. For the same binder, the pKd [7, 31] was “below the threshold”, the pKd [8, 31] was “below the threshold” and the pKd [9, 31] was 5.3. For the same binder, the pKd [10, 31] was 4.65, the pKd [11, 31] was “below the threshold” and the pKd [12, 31] was 4.3. The pKd [13, 31] was 5.07, the pKd [14, 31] was 3.9 and the pKd [15, 31] was 3.82. For the same binder, the pKd [16, 31] was “below the threshold”, the pKd [17, 31] was “below the threshold” and the pKd [18, 31] was 3.8. The pKd [19, 31] was “below the threshold”, the pKd [20, 31] was “below the threshold” and the pKd [21, 31] was “below the threshold”. The pKd [22, 31] was 4.32, the pKd [23, 31] was “below the threshold” and the pKd [24, 31] was “below the threshold”. The pKd [25, 31] was 4.88, the pKd [26, 31] was “below the threshold” and the pKd [27, 31] was “below the threshold”. The pKd [28, 31] was “below the threshold” and the pKd [29, 31] was “below the threshold”.

B4: CACNG8, Q8WXS5 (peptide)
chain: NTLNRKTTPV
B4 was tested, and the pKd [1, 31] was 4.98, the pKd [2, 31] was 4.83 and the pKd [3, 31] was 4.4. The pKd [4, 31] was “below the threshold”, the pKd [5, 31] was 4.2 and the pKd [6, 31] was “below the threshold”. The pKd [7, 31] was “below the threshold”, the pKd [8, 31] was “below the threshold” and the pKd [9, 31] was 4.61. For the same binder, the pKd [10, 31] was 4.98, the pKd [11, 31] was “below the threshold” and the pKd [12, 31] was “below the threshold”. The pKd [13, 31] was 3.97, the pKd [14, 31] was “below the threshold” and the pKd [15, 31] was 4.05. The pKd [16, 31] was “below the threshold”, the pKd [17, 31] was “below the threshold” and the pKd [18, 31] was 3.86. The pKd [19, 31] was “below the threshold”, the pKd [20, 31] was 3.67 and the pKd [21, 31] was “below the threshold”. For the same binder, the pKd [22, 31] was “below the threshold”, the pKd [23, 31] was “below the threshold” and the pKd [24, 31] was “below the threshold”. For the same binder, the pKd [25, 31] was 3.64, the pKd [26, 31] was “below the threshold” and the pKd [27, 31] was “below the threshold”. For the same binder, the pKd [28, 31] was “below the threshold” and the pKd [29, 31] was 4.22.
